# Assays:
# [1] = biological target: T1, NHis-Purβ III (Mus musculus, UniProt O35295 209-303); test: ssDNA-binding ELISA
# T1 sequence: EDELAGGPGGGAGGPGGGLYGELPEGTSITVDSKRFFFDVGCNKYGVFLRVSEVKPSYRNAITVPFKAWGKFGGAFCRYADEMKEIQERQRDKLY
# [2] = biological target: T2, NHis-Purβ I-II-III (Mus musculus, UniProt O35295 41-303); test: ssDNA-binding ELISA
# T2 sequence: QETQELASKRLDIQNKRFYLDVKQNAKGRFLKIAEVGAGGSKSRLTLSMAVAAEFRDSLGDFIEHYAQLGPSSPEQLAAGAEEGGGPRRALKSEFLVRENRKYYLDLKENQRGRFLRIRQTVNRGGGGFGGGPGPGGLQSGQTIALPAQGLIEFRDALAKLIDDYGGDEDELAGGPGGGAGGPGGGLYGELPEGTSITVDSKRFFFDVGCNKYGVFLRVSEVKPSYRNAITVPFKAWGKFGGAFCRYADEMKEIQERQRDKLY
# [3] = biological target: T3, NHis-Purβ (full-length) (Mus musculus, UniProt O35295 1-324); test: ssDNA-binding ELISA
# T3 sequence: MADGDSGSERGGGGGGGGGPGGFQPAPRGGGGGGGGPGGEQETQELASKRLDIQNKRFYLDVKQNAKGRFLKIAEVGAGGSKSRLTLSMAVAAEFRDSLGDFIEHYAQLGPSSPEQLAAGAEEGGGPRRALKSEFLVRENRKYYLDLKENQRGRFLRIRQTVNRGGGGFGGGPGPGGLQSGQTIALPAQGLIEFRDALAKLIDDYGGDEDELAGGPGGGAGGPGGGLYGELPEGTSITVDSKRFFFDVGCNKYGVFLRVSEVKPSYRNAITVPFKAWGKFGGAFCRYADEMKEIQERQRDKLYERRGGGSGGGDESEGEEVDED
# [4] = biological target: T2, NHis-Purβ I-II-III; test: competition
# [5] = biological target: T3, NHis-Purβ (full-length); test: competition
binder,measurement,setting,value
GGGAGCAGAACAGAGGAATGCAGTGGAAGAGA (ssDNA) [PE32-bF],apparent K (half saturation),[1],1.8 ± 0.74 nM
same,apparent K (half saturation),[2],0.22 ± 0.05 nM
same,apparent K (half saturation),[3],0.16 ± 0.05 nM
same,IC50,[4],1 ± 0.3 nM
same,IC50,[5],1.2 ± 0.2 nM

# From PMC3750979
